Entries after “also recorded” stand apart in the source; their conditions may differ.
Experiments:
[1] = test system: mice with type II diabetes; assay: GP73 siRNA treatment of high-fat-diet-induced mice with type II diabetes; format: in vivo, C57BL/6N mice; conditions: for HbA1c: serum
Experimental: 2. In the present invention, the detection method of glucose in mice is as follows: all blood samples were collected from the tail, and the blood glucose was tested by a full-automatic glucometer (ACCU-CHEK; Roche) through a glucose oxidase method; normal mice and diabetic mice were fasting for 6 h, and fasting blood glucose was tested; the random blood glucose level was tested at 9:00 am; and when the blood glucose level is greater than 35 mM (the upper limit of glucometer), it was recorded as 35 mM.
3. In the present invention, the detection method of the glycometabolism experiment is as follows: In the glucose, insulin and pyruvate tolerance tests, mice were fasting for 12 h and then injected with D-glucose (Sigma, Art. No.: G8270, 1.5 g/kg body weight), insulin (Sigma, Art. No.: 19278, 0.75 U/kg body weight) or sodium pyruvate (Sigma, Art. No.: P2256, 2 g/kg body weight) at […]; at 0 min, 15 min, 30 min, 45 min, 60 min, 120 min and 24 h after injection, blood was collected from the tail vein of mice, and blood glucose was tested to determine the intraperitoneal glucose tolerance (IPGTT), pyruvate tolerance (PTT) and insulin tolerance (ITT).
Experimental method: On this basis, C57BL/6N mice (male, 8-10 weeks old, 20-22 g) were selected, and after feeding high-fat diet for 20 weeks, the animals were fasting for 6 h, and the fasting blood glucose was tested. […] According to the fasting blood glucose, the mice were randomly divided into the Ctr siRNA group and the GP73 siRNA experimental group, 6 mice per group. The mice were first injected with 4 nM at the tail vein, and then intraperitoneally injected with 4 nM, once every 5 days. The mice were sacrificed 4 weeks after the first injection, and the indicators such as blood glucose and glycated hemoglobin were detected.

endogenous GP73 = assay: Knockdown of endogenous GP73 in H22 cells (western blotting); format: cell-based; conditions: H22 mouse liver cells; 24 h after transfection
Experimental: Experimental method: A total of 9 RNAi oligos (Table 7, SEQ ID NOs. 1-9) targeting different sites of mouse GP73 were firstly synthesized, and H22 mouse liver cells were transfected and collected for the western blotting experiments 24 h after transfection.

glucagon [2] = molecular target: glucagon (UniProt P01275); assay: SPR, Reichert 4SPR
glucagon [3] = molecular target: glucagon (UniProt P01275); assay: microscale thermophoresis (MST), His-tagged GP73 labelled with RED-tris-NTA, GCG titrated
glucagon [4] = molecular target: glucagon (UniProt P01275); assay: OpenSPR, GP73 coupled to amine sensor chip, glucagon in mobile phase
GCG [5] = molecular target: T1, GCG (Homo sapiens, UniProt P01275); assay: Affinity of recombinant soluble GP73 and GCG by OpenSPR; format: binding
T1 construct: purchased MCE HY-P0082

GCG [6] = molecular target: T1, GCG; assay: Affinity of recombinant soluble GP73 and GCG by microscale thermophoresis (MST); format: binding
GCG [7] = molecular target: T1, GCG; assay: Affinity of recombinant soluble GP73 and GCG by Reichert 4SPR; format: binding
PKA = PKA phosphorylation and kinase activity in HepG2 cells (western blotting); format: cell-based; conditions: versus PBS control

Sequence of glucagon (P01275 53-81 limits assumed): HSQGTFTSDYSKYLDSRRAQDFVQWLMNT

“Ctr siRNA: RNAi oligos with disrupted sequences used as control, AUCACACCAACACAGGUCCTT (chemistry not given here)” gave an ALT ([1]; 4 weeks after treatment) of 77 ± 22, an AST ([1]; 4 weeks after treatment) of 243 ± 65 and a CHO ([1]; 4 weeks after treatment) of 5.62 ± 0.97. It also gave a TG ([1]; 4 weeks after treatment) of 1.27 ± 0.37, a HbA1c ([1]; 4 weeks after treatment) of 4.39±0.67% and a HbA1c ([1]; 4 weeks after treatment, listed as Ctrl siRNA) of 4.39 ± 0.67%. It also gave a Fasting blood glucose ([1]; Week 0) of 12.0 ± 1.7 mM and a Fasting blood glucose ([1]; Week 4, injection once every 5 days) of 12.2 ± 3.0 mM.

“No. 4: GP73 siRNA 995-CCAACAGGCAUCCAUCCAATT (unmodified) (2'-OMe throughout, phosphorothioates at both ends, 3'-cholesterol, counts not given here)” was tested, and the “Knockdown efficiency of endogenous GP73” value (endogenous GP73) was “good knockdown efficiency”.

With recombinant monkey soluble GP73 the Kd (glucagon [2]) was 350 nM and the Kd (glucagon [3]) was 120 nM.

Molecule recombinant mouse soluble GP73 has a Kd (glucagon [2]) of 1550 nM, a Kd (glucagon [4]) of 3210 nM and a Kd (glucagon [3]) of 410 nM.

For recombinant rat soluble GP73, the Kd (glucagon [2]) was 730 nM, the Kd (glucagon [4]) was 3190 nM and the Kd (glucagon [3]) was 580 nM.

B1: rhsGP73: recombinant human soluble GP73, NCBI Reference Sequence NP_057632.2 (protein)
chain: AAAERGAVELKKNEFQGELEKQREQLDKIQSSHNFQLESVNKLYQDEKAVLVNNITTGERLIRVLQDQLKTLQRNYGRLQQDVLQFQKNQTNLERKFSYDLSQCINQMKEVKEQCEERIEEVTKKGNEAVASRDLSENNDQRQQLQALSEPQPRLQAAGLPHTEVPQGKGNVLGNSKSQTPAPSSEVVLDSKRQVEKEETNEIQVVNEEPQRDRLPQEPGREQVVEDRPVGGRGFGGAGELGQTPQVQAALSVSQENPEMEGPERDQLVIPDGQEEEQEAAGEGRNQQKLRGEDDYNMDENEAESETDKQAALAGNDRNIDVFNVEDQKRDTINLLDQREKRNHTL
With B1 the Kd (GCG [5]) was 2800 nM, the Kd (GCG [6]) was 2450 nM and the Kd (GCG [7]) was 2830 nM. For the same molecule, the “PKA phosphorylation level (PKA-p) and kinase activity (RRXρS/T)” value (PKA) was “significantly up-regulated; also recorded: promotes the phosphorylation level (PKA-p) and kinase activity”.

Reference: US20230021840A1, “USE OF GP73 INHIBITOR IN PREPARATION OF MEDICINE FOR TREATING DIABETES” (BEIJING SUNGEN BIOMEDICAL TECHNOLOGY CO. LTD., priority 2020, published 2023)
